# Assay results: paper PMC2723119, “A new cold-adapted β-D-galactosidase from the Antarctic Arthrobacter sp. 32c – gene cloning, overexpression, purification and properties” (BMC Microbiology, 2009)
# B1: Arthrobacter sp. 32c β-D-galactosidase (Arthrobacter sp.) (protein)
# chain: MGKRFPSGWFSPRVHPPRRQRSPMTNQATPGTASVWNNIEGIGFGGDYNPEQWPVSVRLEDLELMQEAGVNFLSVGIFSWALLEPAEGQYDFGWLDDVMDNLHGIGVKVALATATAAPPAWLVRKHPEILPVTADGTTLGPGSRRHYTPSSAVYRKYAAGITRVLAERYKDHPALALWHVDNELGCHVSEFYGEEDAAAFRLWLERRYGTIDALNAAWGTAFWSQHYGSFEEILPPGVAPSTLNPGQQLDFQRFNSWALMDYYRSLVAVLREVTPAVPCTTNLMASSATKSMDYFSWAKDLDVIANDHYLVAADPERHIELAFSADLTRGIAGGDPWILMEHSTSAVNWQPRNQPKMPGEMLRNSLAHVARGADAVMFFQWRQSFAGSEKFHSAMVPHGGRDTRVWREVVDLGAALQLLAPVRGSRVESRAAIVFDYEAWWASEIDSKPSIDVRYLDLLRAFHRSLFLRGVSVDMVHPSASLDGYDLVLVCTLYSVTDEAAANIAAAAAGGATVLVSYFSGITDEKDHVRLGGYPGAFRELLGVRVEEFHPLLAGSQLKLSDGTVSSIWSEHVHLDGAEAFQTFTGYPLEGVPSLTRRAVGTGAAWYLATFPDRDGIESLVDRLLAESGVSPVAEADAGVELTRRRSADGGSFLFAINHTRAAASVRASGTDVLSGERFTGTVEAGSVAVIAED
# notes: full length, recombinant, no tag apparent (own stop codon in reverse primer); starts MGKRFPS (from primer)
# Substrate: O=[N+]([O-])c1ccccc1O[C@@H]1O[C@H](CO)[C@H](O)[C@H](O)[C@H]1O
# Test: purified protein
# Assay type: biochemical, Arthrobacter sp.
# Details: 50 °C (optimum; also at 10, 20, 30, 40, 55 °C), pH 6.5, 0.02 M potassium phosphate
protein,measurement,value
B1,Km,2620 ± 210 µM
same,kcat,212.4 ± 1.67 s⁻¹
same,kcat/Km,81100 ± 7760 M⁻¹ s⁻¹
